Experimental data from US20250326813A1 (ELPIS BIOPHARMACEUTICALS, published 2025).
Residue numbers refer to the chain shown, from its start. In names and notes the source's numbering stands.

T1: human IL2Rα Fc fusion protein (human, UniProt P01589 22-213, limits assumed)
T1 construct: also called CD25; not shown: Fc part
T1 sequence (looked up): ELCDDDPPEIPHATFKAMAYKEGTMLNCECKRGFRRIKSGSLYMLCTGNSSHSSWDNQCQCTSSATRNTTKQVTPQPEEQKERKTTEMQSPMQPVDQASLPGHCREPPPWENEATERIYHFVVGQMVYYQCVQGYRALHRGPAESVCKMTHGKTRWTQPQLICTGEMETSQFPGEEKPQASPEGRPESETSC

T2: human IL2Rβ Fc fusion protein (human, UniProt P14784 27-239)
T2 construct: also called ILR2β; CD122; not shown: Fc part
T2 sequence (looked up): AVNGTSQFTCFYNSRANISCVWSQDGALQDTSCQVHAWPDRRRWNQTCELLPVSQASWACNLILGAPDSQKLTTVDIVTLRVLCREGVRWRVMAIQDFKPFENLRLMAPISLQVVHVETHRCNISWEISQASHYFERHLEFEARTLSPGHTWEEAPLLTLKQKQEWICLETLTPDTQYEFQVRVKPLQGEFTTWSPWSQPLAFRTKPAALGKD

B1: EP580, mammalian cell-produced, with F35L, R38D and F42R (ligand)
chain: APASSSTKKTQLQLEHLLLDLQMILNGINNYKNPLLTDMLTRKFYMPKKATELKHLQCLEEELKPLEEVLNLAQSKNFHLRIRDLLNKINELHRYIKGSETTFMCEYADETATIVEFLNRWITFSQSIISTLT
notes: His-Flag tag not in the parts; also called 2021EP16-H09
B2: EP573, mammalian cell-produced, with F35L, R38D and F42R (ligand)
chain: APASSSTKKTQLQLEHLLLDLQMILNGINNYKNPLLTDMLTRKFYMPKKATELKHLQCLEEELKPLEEVLNLAQSKNFHLNRTDLVGDVNATIKALKGSETTFMCEYADETATIVEFLNRWITFSQSIISTLT
notes: His-Flag tag not in the parts; also called 2021EP16-E02
B3: EP575, mammalian cell-produced (ligand)
chain: APASSSTKKTQLQLEHLLLDLQMILNGINNYKNPLLTDMLTRKFYMPKKATELKHLQCLEEELKPLEEVLNLAQSKNFHLRNKGILGDISNIVLALKGSETTFMCEYADETATIVEFLNRWITFSQSIISTLT
notes: also called 2021EP16-D09
B4: EP567, mammalian cell-produced (ligand)
chain: APASSSTKKTQLQLEHLLLDLQMILNGINNYKNPLLTDMLTRKFYMPKKATELKHLQCLEEELKPLEEVLNLAQSKNFHLSLREPIGNIVTSVRELKGSETTFMCEYADETATIVEFLNRWITFSQSIISTLT
notes: also called 2021EP21-C04
B5: EP576, mammalian cell-produced, with F35L, R38D and F42R (ligand)
chain: APASSSTKKTQLQLEHLLLDLQMILNGINNYKNPLLTDMLTRKFYMPKKATELKHLQCLEEELKPLEEVLNLAQSKNFHLLPRNKISKTKVMVHELKGSETTFMCEYADETATIVEFLNRWITFSQSIISTLT
notes: His-Flag tag not in the parts; also called 2021EP21-C10
B6: EP568 (clone 2021EP16-H06), E. coli-produced (ligand)
chain: APASSSTKKTQLQLEHLLLDLQMILNGINNYKNPKLTRMLTFKFYMPKKATELKHLQCLEEELKPLEEVLNLAQSKNFHLLAKRTVSNMYVRVEELKGSETTFMCEYADETATIVEFLNRWITFSQSIISTLT
B7: EP581, mammalian cell-produced (ligand)
chain: APASSSTKKTQLQLEHLLLDLQMILNGINNYKNPLLTDMLTRKFYMPKKATELKHLQCLEEELKPLEEVLNLAQSKNFHLRSREVVSRIDAIILELKGSETTFMCEYADETATIVEFLNRWITFSQSIISTLT
notes: also called 2021EP16-C10
B8: EP662, EP575 back-mutation clone (ligand)
chain: B3 chain with N82P, I85L, L86I, G87S, S90N
notes: Mammalian-produced, His-tagged
B9: EP675, EP575 back-mutation clone (ligand)
chain: B3 chain with I85L, L86I, G87S, D88N
notes: as for B8
B10: EP669, EP575 back-mutation clone (ligand)
chain: B3 chain with N82P, I85L, L86I, G87S
notes: as for B8
B11: EP665, EP575 back-mutation clone (ligand)
chain: B3 chain with K83R, I85L, L86I, G87S, S90N
notes: as for B8
B12: EP671, EP575 back-mutation clone (ligand)
chain: B3 chain with N82P, I85L, L86I, S90N
notes: as for B8
B13: EP668, EP575 back-mutation clone (ligand)
chain: B3 chain with N82P, K83R, I85L, L86I
notes: as for B8
B14: EP661, EP575 back-mutation clone (ligand)
chain: B3 chain with N82P, I85L, L86I, G87S, D88N
notes: as for B8
B15: EP658, EP575 back-mutation clone (ligand)
chain: B3 chain with N82P, K83R, I85L, L86I, G87S
notes: as for B8

What was measured:
[1] = biological target: T1, human IL2Rα Fc fusion protein; assay: ELISA on coated receptor-Fc, anti-His detection
Procedure: (§1) Mammalian cell-produced agonists were characterized for their binding activities to respective IL2Rβ and IL2Rα receptors by ELISA. Briefly, 384 well plate was immobilized with human IL2Rα and IL2Rβ Fc fusion proteins at a final concentration of 2 μg/mL in 1× PBS in total volume of 25 μL per well. The plate was incubated overnight at 4° C. and blocked with 80 μL of superblock per well for 1 hour. The purified clones were added to IL2Rα or IL-2Rβ wells in parallel in duplicates as a titration, with the highest concentration of 1 μM, followed by a 10 point 5× serial dilution of the clones. The binding activity was detected by adding 25 μL of anti-His HRP diluted at 1:5000 in 1× PBST. In between each step, the plate was washed three times with 1× PBST using a plate washer. The plate was then developed with 25 μL of TMB substrate for five minutes and stopped by adding 25 μL of 2N sulfuric acid. The plate was read at OD450 nm Biotek plate reader and the bar graph at 1 μM of IL2 was generated with Prism 8.1 software (FIG. 2).

[2] = biological target: T2, human IL2Rβ Fc fusion protein; assay: ELISA: human IL2Rβ Fc fusion coated at 2 µg/mL, purified His-tagged IL2 titrated from 1 µM in 5x steps, anti-His HRP, OD450
Procedure: as §1

[3] = biological target: T2, human IL2Rβ Fc fusion protein; assay: ELISA on coated receptor-Fc, anti-His detection; grade by OD450 (weak: 0.3-0.7)
Procedure: as §1

[4] = biological target: T1, human IL2Rα Fc fusion protein; assay: ELISA on coated receptor-Fc, anti-His detection, single point 10 µM
Procedure: (§2) Back-mutations were characterized for their binding activities to IL2Rβ and IL2Rα receptors by ELISA. Briefly, 384 well plate was immobilized with human IL2Rα and IL2Rβ Fc fusion proteins at a final concentration of 2 μg/mL in 1× PBS in total volume of 25 μL per well. The plate was incubated overnight at 4° C. and blocked with 80 μL of superblock per well for 1 hour. […] The IL2 mutant binding was detected by adding 25 μL of anti-His HRP diluted at 1:5000 in 1× PBST. In between each step, the plate was washed three times with 1× PBST using a plate washer. […] The plate was then developed with 25 μL of TMB substrate for five minutes and stopped by adding 25 μl of 2N sulfuric acid. The plate was read at OD450 nm Biotek plate reader (Table 6) and the data was analyzed with Prism 8.1 software to generate bar graph (FIG. 5).

[5] = biological target: T2, human IL2Rβ Fc fusion protein; assay: as above
Procedure: as §2

[6] = biological target: T1, human IL2Rα Fc fusion protein; assay: ELISA: human IL2Rα Fc fusion coated at 2 µg/mL, purified His-tagged IL2 titrated from 1 µM in 5x steps, anti-His HRP, OD450
Procedure: as §1

[7] = biological target: T1, human IL2Rα Fc fusion protein; assay: ELISA on coated receptor-Fc, anti-His detection; grade by OD450 (weak: 0.3-0.7)
Procedure: as §1

[8] = biological target: T2, human IL2Rβ Fc fusion protein; assay: SPR (Biacore T200), receptor captured on Protein A chip
Procedure: The assay was run with Biacore T200 control software version 2.0. For each cycle, 1 μg/mL of human IL2Rβ or IL2Rα was captured for 60 seconds at flow rate of 10 μL/min on flow cell 2 in 1× HBSP buffer on Protein A sensor chip. 100 nM and 20 nM of HIS tag purified engineered IL2 mutant was injected onto both reference flow cell 1 and IL2Rβ or IL2Rα captured flow cell 2 for 150 seconds at flow rate of 30 μL/min followed by washing for 300 seconds. The flow cells were then regenerated with Glycine pH 2 for 60 seconds at a flow rate of 30 μL/mins. The kinetics data was analyzed with Biacore T200 evaluation software 3000. The specific binding response unit was derived from subtraction of binding to reference flow cell 1 from target flow cell 2.

[9] = biological target: T1, human IL2Rα Fc fusion protein; assay: ELISA, single concentration, anti-flag detection, E. coli-produced clone
Procedure: (§3) Supernatants containing engineered IL2 mutants were assessed with sandwich ELISA assay to screen for IL2Rα binding. Briefly, 96-well plate was immobilized with human Fc and human IL2Rα, respectively, at a final concentration of 2 μg/mL in 1× PBS in total volume of 50 μL per well. The plate was incubated overnight at 4° C. followed by blocking with 200 μL of superblock per well for 1 hour. 100 μl of supernatant was added to both Fc and IL2Rα immobilized wells and incubated for 1 hour with shaking. The engineered IL2 mutant binding was detected by adding 50 μL of anti-Flag HRP diluted at 1:5000 in 1× PBST. In between each step, the plate was washed three times with 1× PBST in a plate washer. The plate was then developed with 50 μL of TMB substrate for five minutes and stopped by adding 50 μL of 2N sulfuric acid. The plate was read at OD450 nm using a Biotek plate reader and the binding and selectivity was analyzed.
as §3, with “Single clones were next screened for IL2Rβ binding. IL2Rβ binding screening ELISA was developed for the identification of individual” for “Supernatants containing”, “mutant.” for “mutants were assessed with sandwich ELISA assay to screen for IL2Rα binding.”, “IL2Rβ,” for “IL2Rα,”, “IL2Rβ” for “IL2Rα”
(§4) To further triage, the engineered IL2 clones with unique sequences were produced in E. coli. In short, the glycerol stock of each engineered agonist clone was inoculated into TB medium for overnight growth. The next day, cells from the overnight culture were inoculated into TB medium and grown to a cell density of OD₆₀₀ between 0.6-0.8. IPTG was added to a final concentration of 1 mM to induce the expression during culture at 30° C. overnight. The supernatant was collected by centrifugation.

[10] = biological target: T2, human IL2Rβ Fc fusion protein; assay: as above
Procedure: as §3
as §3, with “Single clones were next screened for IL2Rβ binding. IL2Rβ binding screening ELISA was developed for the identification of individual” for “Supernatants containing”, “mutant.” for “mutants were assessed with sandwich ELISA assay to screen for IL2Rα binding.”, “IL2Rβ,” for “IL2Rα,”, “IL2Rβ” for “IL2Rα”
as §4

| Binder | Average OD (450 nm) [4] | Average OD (450 nm) [5] | further results |
| --- | --- | --- | --- |
| B1 |  |  | binding result [1]: no binding (tested: OD450 < 0.1; 1 µM); binding result [2]: no binding (tested: 1000 nM) |
| B2 |  |  | binding result [1]: no binding (tested: OD450 < 0.1; 1 µM); OD450 [3]: 0.3 to 0.7 od |
| B3 | 0.113 OD450 | 0.093 OD450 | OD450 [3]: 0.3 to 0.7 od; binding result [6]: no binding (tested: 1000 nM) |
| B4 |  |  | OD450 [7]: 0.3 to 0.7 od; OD450 [3]: 0.3 to 0.7 od |
| B5 |  |  | binding result [6]: no binding (tested: 1000 nM); binding result [2]: no binding (tested: 1000 nM) |
| B6 |  |  | binding result [8]: no binding (tested: Rmax < 5RU; 100 nM and 20 nM); OD450 nm [9]: 1.25 OD450; OD450 nm [10]: 0.105 OD450 |
| B7 |  |  | OD450 [7]: 0.3 to 0.7 od; OD450 [3]: 0.3 to 0.7 od |
| B8 | 0.083 OD450 | 0.083 OD450 |  |
| B9 | 0.084 OD450 | 0.082 OD450 |  |
| B10 | 0.082 OD450 | 0.082 OD450 |  |
| B11 | 0.077 OD450 | 0.096 OD450 |  |
| B12 | 0.082 OD450 | 0.09 OD450 |  |
| B13 | 0.113 OD450 | 0.17 OD450 |  |
| B14 | 0.11 OD450 | 0.501 OD450 |  |
| B15 | 0.12 OD450 | 0.87 OD450 |  |
